# Assay results taken from article PMC10397247.
# Where two headings read alike, the source gives them in different places.
# T1: 4H963-AA
# T1 chain: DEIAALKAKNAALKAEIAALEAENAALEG
# T2: 4H3340-AA
# T2 chain: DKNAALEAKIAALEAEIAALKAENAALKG
# T3: 4H3493-AA
# T3 chain: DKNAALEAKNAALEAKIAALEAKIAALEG
# T4: 4H2504-AA
# T4 chain: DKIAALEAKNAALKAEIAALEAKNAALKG
# T5: 4H2151-AA
# T5 chain: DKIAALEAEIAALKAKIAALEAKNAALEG
# T6: 4H1552-AA
# T6 chain: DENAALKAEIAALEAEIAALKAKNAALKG
# T7: P11-AA
# T7 chain: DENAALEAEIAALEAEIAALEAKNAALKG
# T8: 4H1867-AA
# T8 chain: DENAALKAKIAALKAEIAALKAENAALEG
# T9: zCON9_A
# T9 chain: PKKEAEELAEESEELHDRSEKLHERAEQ
# T10: AP6-AA
# T10 chain: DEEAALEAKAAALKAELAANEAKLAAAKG
# T11: P2-AA
# T11 chain: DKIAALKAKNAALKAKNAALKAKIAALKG
# T12: 4H_APH4
# T12 chain: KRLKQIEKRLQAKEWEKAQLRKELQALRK
# T13: P7-AA
# T13 chain: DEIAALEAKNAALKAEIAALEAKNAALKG
# T14: AP8-AA
# T14 chain: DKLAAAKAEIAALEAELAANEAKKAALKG
# T15: O6-AA
# T15 chain: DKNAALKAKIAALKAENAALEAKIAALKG
# T16: 4H2078-AA
# T16 chain: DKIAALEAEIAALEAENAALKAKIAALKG
# T17: P8-AA
# T17 chain: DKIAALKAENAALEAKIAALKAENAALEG
# T18: P1-AA
# T18 chain: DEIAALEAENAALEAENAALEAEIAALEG
# T19: P6-AA-1HAA-N
# T19 chain: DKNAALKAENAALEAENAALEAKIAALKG
# T20: 4H_APH2
# T20 chain: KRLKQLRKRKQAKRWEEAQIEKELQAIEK
# T21: AP1-AA
# T21 chain: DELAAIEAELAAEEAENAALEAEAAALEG
# T22: AP5-AA
# T22 chain: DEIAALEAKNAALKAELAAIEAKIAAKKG
# T23: P4-AA
# T23 chain: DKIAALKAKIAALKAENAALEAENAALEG
# T24: O5-AA
# T24 chain: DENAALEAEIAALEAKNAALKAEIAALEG
# T25: 4H123-AA
# T25 chain: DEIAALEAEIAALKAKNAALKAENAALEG
# T26: 4H1153-AA
# T26 chain: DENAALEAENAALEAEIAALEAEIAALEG
# T27: 4H2442-AA
# T27 chain: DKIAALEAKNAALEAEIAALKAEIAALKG
# T28: 4H967-AA
# T28 chain: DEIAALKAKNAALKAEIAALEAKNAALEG
# T29: 4H4001-AA
# T29 chain: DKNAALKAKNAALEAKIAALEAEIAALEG
# T30: 4H3905-AA
# T30 chain: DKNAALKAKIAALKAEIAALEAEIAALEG
# T31: 4H3587-AA
# T31 chain: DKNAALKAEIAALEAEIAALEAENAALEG
# T32: 4H2736-AA
# T32 chain: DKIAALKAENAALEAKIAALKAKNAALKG
# T33: 4H3625-AA
# T33 chain: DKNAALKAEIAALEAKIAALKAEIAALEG
# T34: 4H4038-AA
# T34 chain: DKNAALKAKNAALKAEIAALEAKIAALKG
# T35: 4H2622-AA
# T35 chain: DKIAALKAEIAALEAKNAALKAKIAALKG
# T36: 4H510-AA
# T36 chain: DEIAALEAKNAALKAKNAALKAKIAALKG
# T37: 4H2343-AA
# T37 chain: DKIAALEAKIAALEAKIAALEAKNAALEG
# T38: 4H3921-AA
# T38 chain: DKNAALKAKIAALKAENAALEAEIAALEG
# T39: 4H2575-AA
# T39 chain: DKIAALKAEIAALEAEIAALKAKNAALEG
# T40: 4H335-AA
# T40 chain: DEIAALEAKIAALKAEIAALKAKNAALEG
# T41: 4H1558-AA
# T41 chain: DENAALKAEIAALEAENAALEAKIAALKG
# T42: 4H1257-AA
# T42 chain: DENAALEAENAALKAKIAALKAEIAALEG
# T43: 4H130-AA
# T43 chain: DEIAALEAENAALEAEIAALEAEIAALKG
# How the values were obtained:
# Assay in all cases: two-hybrid library CCmax;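 further: natural log of median RNA to DNA barcode read ratio; higher means stronger binding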
# [1] = target: T1, 4H963-AA; settings: mean of both orientations
# [2] = target: T2, 4H3340-AA; settings: mean of both orientations
# [3] = target: T3, 4H3493-AA
# [4] = target: T4, 4H2504-AA; settings: mean of both orientations
# [5] = target: T5, 4H2151-AA; settings: mean of both orientations
# [6] = target: T6, 4H1552-AA; settings: mean of both orientations
# [7] = target: T7, P11-AA; settings: mean of both orientations
# [8] = target: T8, 4H1867-AA; settings: mean of both orientations
# [9] = target: T9, zCON9_A
# [10] = target: T10, AP6-AA; settings: mean of both orientations
# [11] = target: T11, P2-AA; settings: mean of both orientations
# [12] = target: T12, 4H_APH4
# [13] = target: T13, P7-AA; settings: mean of both orientations
# [14] = target: T14, AP8-AA; settings: mean of both orientations
# [15] = target: T15, O6-AA; settings: mean of both orientations
# [16] = target: T16, 4H2078-AA; settings: mean of both orientations
# [17] = target: T17, P8-AA; settings: mean of both orientations
# [18] = target: T18, P1-AA; settings: mean of both orientations
# [19] = target: T19, P6-AA-1HAA-N; settings: mean of both orientations
# [20] = target: T20, 4H_APH2
# [21] = target: T21, AP1-AA; settings: mean of both orientations
# [22] = target: T22, AP5-AA; settings: mean of both orientations
# [23] = target: T23, P4-AA; settings: mean of both orientations
# [24] = target: T24, O5-AA; settings: mean of both orientations
# [25] = target: T25, 4H123-AA; settings: mean of both orientations
# [26] = target: T26, 4H1153-AA
# [27] = target: T27, 4H2442-AA; settings: mean of both orientations
# [28] = target: T28, 4H967-AA; settings: mean of both orientations
# [29] = target: T29, 4H4001-AA; settings: mean of both orientations
# [30] = target: T30, 4H3905-AA; settings: mean of both orientations
# [31] = target: T31, 4H3587-AA; settings: mean of both orientations
# [32] = target: T32, 4H2736-AA; settings: mean of both orientations
# [33] = target: T33, 4H3625-AA; settings: mean of both orientations
# [34] = target: T34, 4H4038-AA; settings: mean of both orientations
# [35] = target: T35, 4H2622-AA; settings: mean of both orientations
# [36] = target: T36, 4H510-AA; settings: mean of both orientations
# [37] = target: T37, 4H2343-AA; settings: mean of both orientations
# [38] = target: T38, 4H3921-AA; settings: mean of both orientations
# [39] = target: T39, 4H2575-AA
# [40] = target: T40, 4H335-AA; settings: mean of both orientations
# [41] = target: T41, 4H1558-AA; settings: mean of both orientations
# [42] = target: T42, 4H1257-AA
# [43] = target: T43, 4H130-AA; settings: mean of both orientations
binder,measurement,setting,value
DEIAALEAENAALKAKNAALKAEIAALEG [4H249-AA],interaction score,[1],-1.65
same,interaction score,[2],-1.45
same,interaction score,[3],-1.67
same,interaction score,[4],-1.35
DENAALEAKIAALKAKNAALKAEIAALEG [4H1401-AA],interaction score,[5],-1.5
same,interaction score,[6],-0.741
same,interaction score,[7],0.388
same,interaction score,[8],-1.22
same,interaction score,[9],-1.95
same,interaction score,[10],-1.73
same,interaction score,[11],-1.76
same,interaction score,[12],-1.85
same,interaction score,[13],-1.39
same,interaction score,[14],-0.198
same,interaction score,[15],1.98
same,interaction score,[16],1.93
same,interaction score,[17],0.854
same,interaction score,[18],-0.911
same,interaction score,[19],1.57
same,interaction score,[20],-2.35
same,interaction score,[21],-1.76
same,interaction score,[22],-0.362
same,interaction score,[23],-1.93
DKNAALKAEIAALEAENAALEAKIAALKG [4H3606-AA],interaction score,[7],-1.15
same,interaction score,[9],-1.36
same,interaction score,[10],-0.593
same,interaction score,[11],0.917
same,interaction score,[12],-1.64
same,interaction score,[13],1.24
same,interaction score,[24],2.23
same,interaction score,[14],-1.43
same,interaction score,[17],-0.645
same,interaction score,[18],-1.64
same,interaction score,[20],-2.3
same,interaction score,[21],-1.62
same,interaction score,[22],2.26
same,interaction score,[23],-0.573
DENAALEAEIAALKAKNAALEAKIAALKG [4H1142-AA],interaction score,[25],-1.25
same,interaction score,[26]; mean of both orientations,-1.39
DENAALKAKIAALEAKNAALEAKIAALEG [4H1845-AA],interaction score,[27],-1.87
same,interaction score,[28],-1.65
same,interaction score,[29],-1.9
DENAALEAKIAALKAKIAALKAEIAALEG [4H1385-AA],interaction score,[30],2.31
same,interaction score,[31],1.58
same,interaction score,[32],-0.116
same,interaction score,[33],1.76
same,interaction score,[34],1.56
same,interaction score,[35],1.24
same,interaction score,[19],-0.2
same,interaction score,[36],-1.54
DKIAALEAENAALKAEIAALKAKIAALEG [4H2253-AA],interaction score,[37],-2.02
DKIAALEAEIAALKAKNAALEAKIAALEG [4H2165-AA],interaction score,[38],-1.58
same,interaction score,[39]; mean of both orientations,-1.19
same,interaction score,[40],-1.5
same,interaction score,[37],-1.25
DENAALEAENAALEAEIAALEAEIAALEG [4H1153-AA],interaction score,[5],-1.21
same,interaction score,[38],-1.87
same,interaction score,[25],-2.05
same,interaction score,[6],-0.818
same,interaction score,[8],0.531
same,interaction score,[39],-0.264
same,interaction score,[16],-0.975
same,interaction score,[40],-0.418
same,interaction score,[26],-1.43
DENAALEAKIAALKAEIAALEAKIAALKG [4H1350-AA],interaction score,[30],1.9
same,interaction score,[31],1.39
same,interaction score,[32],-1.22
same,interaction score,[33],1.97
same,interaction score,[34],0.909
same,interaction score,[35],1.12
same,interaction score,[36],-1.17
DEIAALEAENAALEAKIAALKAENAALEG [4H171-AA],interaction score,[24],-0.0194
same,interaction score,[15],-0.729
DENAALEAEIAALEAKIAALEAKNAALKG [4H1064-AA],interaction score,[41],-1.61
same,interaction score,[42]; mean of both orientations,0.616
same,interaction score,[43],-0.874
DENAALKAEIAALKAENAALKAEIAALKG [4H1626-AA],interaction score,[1],-1.46
same,interaction score,[2],-1.43
same,interaction score,[3]; mean of both orientations,-1.45
same,interaction score,[4],-1.49
DENAALEAENAALKAKIAALKAEIAALEG [4H1257-AA],interaction score,[27],-1.57
same,interaction score,[41],-0.232
same,interaction score,[42],0.41
same,interaction score,[28],-0.389
same,interaction score,[43],1.9
same,interaction score,[29],-0.973
